Test results from PMC9352680, “A comprehensive thermodynamic model for RNA binding by the Saccharomyces cerevisiae Pumilio protein PUF4”.

T1: PUF4 RNA-binding domain (Saccharomyces cerevisiae, UniProt P25339 537-888)
T1 sequence: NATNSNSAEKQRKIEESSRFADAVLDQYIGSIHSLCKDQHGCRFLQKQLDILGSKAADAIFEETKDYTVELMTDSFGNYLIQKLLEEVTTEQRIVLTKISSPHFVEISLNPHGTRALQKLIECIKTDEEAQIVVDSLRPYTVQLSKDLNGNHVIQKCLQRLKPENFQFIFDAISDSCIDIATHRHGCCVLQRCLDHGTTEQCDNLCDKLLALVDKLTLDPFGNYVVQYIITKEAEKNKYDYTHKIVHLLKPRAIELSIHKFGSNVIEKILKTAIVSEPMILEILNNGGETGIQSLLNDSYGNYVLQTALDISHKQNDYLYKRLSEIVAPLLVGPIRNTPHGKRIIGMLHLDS


molecular target: T1, PUF4 RNA-binding domain; experiment: Mg; RNA-MaP; 20 mM Na-HEPES pH 7.4, 30 mM KOAc, 0.75 mM MgCl2, 0.1% Tween-20, 5% glycerol, 0.1 mg/mL BSA, 2 mM DTT; 25 C; 0.0125-409.6 nM protein; conditions: tags: N-His6-TEV cleaved; C-SNAP kept, Cy3B-labelled; label: tethered on chip by stalled RNA polymerase

Binder | Kd
UCUCUUUGUCUUACUAUCUCUU (ssRNA) [Ib_S1_P5E.1_K5.1_C5.1_H5.1_[A4C]_A5.1_F5.1_[T8C]_T5.1] | 86.7 nM
UCUCUUUGUGUUAAUAUCUCUU (ssRNA) [Ib_S1_P5E.1_K5.1_C5.1_H5.1_[A4G]_A5.1_F5.1_[T8A]_T5.1] | 134 nM
Id_ii_S2_P3E.2_K3.1_C3.2_H3.1_A3.1_F3.1_T3.2_[T9G]_[A10C] (ssRNA) RNA: UUUGAUUAAUAUGAUAUCGUUCUUUCUCUUGUAUAUAGCUUCUUUCUCGAUAUCAUAUUAAUCUUU | 2.46 nM
Id_ii_S2_P3E.3_K3.2_C3.2_[C-2G]_H3.2_A3.1_F3.1_T3.2_[A10G] (ssRNA) RNA: UUUGAUUAAUAUGAUAUCGUUCUUUCUGUUAUAUAUAUGUUCUUUCUCGAUAUCAUAUUAAUCUUU | 22.9 nM
Id_ii_S2_P3E.3_K3.2_C3.2_[C-2T]_[T-1G]_H3.2_A3.1_F3.1_T3.2_[T9A]_[A10T] (ssRNA) RNA: UUUGAUUAAUAUGAUAUCGUUCUUUCUUGUAUAUAUAAUUUCUUUCUCGAUAUCAUAUUAAUCUUU | 1.67 nM
Id_ii_S2_P3E.3_K3.2_C3.2_[C-2G]_H3.2_A3.1_F3.1_T3.2_[A10C] (ssRNA) RNA: UUUGAUUAAUAUGAUAUCGUUCUUUCUGUUAUAUAUAUCUUCUUUCUCGAUAUCAUAUUAAUCUUU | 15.1 nM
Id_ii_S2_P3E.3_K3.2_C3.2_[C-2T]_[T-1G]_H3.2_A3.1_F3.1_T3.2_[A10T] (ssRNA) RNA: UUUGAUUAAUAUGAUAUCGUUCUUUCUUGUAUAUAUAUUUUCUUUCUCGAUAUCAUAUUAAUCUUU | 1.25 nM
Id_ii_S2_P3E.3_K3.2_C3.2_[C-2T]_[T-1A]_H3.2_A3.1_F3.1_T3.2_[A10G] (ssRNA) RNA: UUUGAUUAAUAUGAUAUCGUUCUUUCUUAUAUAUAUAUGUUCUUUCUCGAUAUCAUAUUAAUCUUU | 554 nM
Id_ii_S2_P3E.2_K3.1_C3.2_H3.1_A3.1_F3.1_T3.2_[A10C] (ssRNA) RNA: UUUGAUUAAUAUGAUAUCGUUCUUUCUCUUGUAUAUAUCUUCUUUCUCGAUAUCAUAUUAAUCUUU | 1.61 nM
Id_ii_S2_P3E.3_K3.2_C3.2_[C-2T]_[T-1G]_H3.2_A3.1_F3.1_T3.2_[A10G] (ssRNA) RNA: UUUGAUUAAUAUGAUAUCGUUCUUUCUUGUAUAUAUAUGUUCUUUCUCGAUAUCAUAUUAAUCUUU | 1.52 nM
Id_ii_S2_P3E.3_K3.2_C3.2_[C-2G]_H3.2_A3.1_F3.1_T3.2_[T9A]_[A10T] (ssRNA) RNA: UUUGAUUAAUAUGAUAUCGUUCUUUCUGUUAUAUAUAAUUUCUUUCUCGAUAUCAUAUUAAUCUUU | 36.2 nM
Id_ii_S2_P3E.3_K3.2_C3.2_[C-2G]_H3.2_A3.1_F3.1_T3.2_[A10T] (ssRNA) RNA: UUUGAUUAAUAUGAUAUCGUUCUUUCUGUUAUAUAUAUUUUCUUUCUCGAUAUCAUAUUAAUCUUU | 9.18 nM
Id_ii_S2_P3E.3_K3.2_C3.2_[C-2T]_[T-1C]_H3.2_A3.1_F3.1_T3.2_[T9C]_[A10C] (ssRNA) RNA: UUUGAUUAAUAUGAUAUCGUUCUUUCUUCUAUAUAUACCUUCUUUCUCGAUAUCAUAUUAAUCUUU | 228 nM
Id_ii_S2_P3E.3_K3.2_C3.2_[C-2T]_[T-1C]_H3.2_A3.1_F3.1_T3.2_[T9G]_[A10C] (ssRNA) RNA: UUUGAUUAAUAUGAUAUCGUUCUUUCUUCUAUAUAUAGCUUCUUUCUCGAUAUCAUAUUAAUCUUU | 393 nM
Id_ii_S2_P3E.3_K3.2_C3.2_[C-2G]_H3.2_A3.1_F3.1_T3.2_[T9C]_[A10C] (ssRNA) RNA: UUUGAUUAAUAUGAUAUCGUUCUUUCUGUUAUAUAUACCUUCUUUCUCGAUAUCAUAUUAAUCUUU | 31.2 nM
Id_ii_S2_P3E.3_K3.2_C3.2_[C-2T]_[T-1C]_H3.2_A3.1_F3.1_T3.2_[T9A]_[A10T] (ssRNA) RNA: UUUGAUUAAUAUGAUAUCGUUCUUUCUUCUAUAUAUAAUUUCUUUCUCGAUAUCAUAUUAAUCUUU | 147 nM
Id_ii_S2_P3E.3_K3.2_C3.2_[C-2G]_[T-1G]_H3.2_A3.1_F3.1_T3.2_[A10T] (ssRNA) RNA: UUUGAUUAAUAUGAUAUCGUUCUUUCUGGUAUAUAUAUUUUCUUUCUCGAUAUCAUAUUAAUCUUU | 137 nM
Id_ii_S2_P3E.3_K3.2_C3.2_[C-2T]_[T-1A]_H3.2_A3.1_F3.1_T3.2_[T9A]_[A10C] (ssRNA) RNA: UUUGAUUAAUAUGAUAUCGUUCUUUCUUAUAUAUAUAACUUCUUUCUCGAUAUCAUAUUAAUCUUU | 203 nM
Id_ii_S2_P3E.3_K3.2_C3.2_[C-2G]_[T-1C]_H3.2_A3.1_F3.1_T3.2_[T9C]_[A10C] (ssRNA) RNA: UUUGAUUAAUAUGAUAUCGUUCUUUCUGCUAUAUAUACCUUCUUUCUCGAUAUCAUAUUAAUCUUU | 329 nM
Id_ii_S2_P3E.2_K3.1_C3.2_H3.1_A3.1_F3.1_T3.2_[T9A] (ssRNA) RNA: UUUGAUUAAUAUGAUAUCGUUCUUUCUCUUGUAUAUAAAUUCUUUCUCGAUAUCAUAUUAAUCUUU | 2.73 nM
Id_ii_S2_P3E.2_K3.1_C3.2_H3.1_A3.1_F3.1_T3.2_[T9A]_[A10T] (ssRNA) RNA: UUUGAUUAAUAUGAUAUCGUUCUUUCUCUUGUAUAUAAUUUCUUUCUCGAUAUCAUAUUAAUCUUU | 1.9 nM
Id_ii_S2_P3E.2_K3.1_C3.2_H3.1_A3.1_F3.1_T3.2_[A10T] (ssRNA) RNA: UUUGAUUAAUAUGAUAUCGUUCUUUCUCUUGUAUAUAUUUUCUUUCUCGAUAUCAUAUUAAUCUUU | 1.32 nM
Id_ii_S2_P3E.3_K3.2_C3.2_[C-2T]_[T-1A]_H3.2_A3.1_F3.1_T3.2_[T9C]_[A10C] (ssRNA) RNA: UUUGAUUAAUAUGAUAUCGUUCUUUCUUAUAUAUAUACCUUCUUUCUCGAUAUCAUAUUAAUCUUU | 63.8 nM

Binder | Kd
If_S2_P3E.2_K3.1_C3.2_H3.1_A3.1_F3.1_T3.2 (ssRNA) RNA: UUUGAUUAAUAUGAUAUCGUUCUUUCUCUUGUAUAUAUAUUCUUUCUCGAUAUCAUAUUAAUCUUU | 1.16 nM
Id_ii_S2_P3E.3_K3.2_C3.2_[C-2T]_[T-1C]_H3.2_A3.1_F3.1_T3.2_[T9C]_[A10T] (ssRNA) RNA: UUUGAUUAAUAUGAUAUCGUUCUUUCUUCUAUAUAUACUUUCUUUCUCGAUAUCAUAUUAAUCUUU | 88 nM
Id_ii_S2_P3E.3_K3.2_C3.2_[C-2T]_[T-1C]_H3.2_A3.1_F3.1_T3.2_[T9C] (ssRNA) RNA: UUUGAUUAAUAUGAUAUCGUUCUUUCUUCUAUAUAUACAUUCUUUCUCGAUAUCAUAUUAAUCUUU | 175 nM
Id_ii_S2_P3E.3_K3.2_C3.2_[C-2T]_[T-1A]_H3.2_A3.1_F3.1_T3.2_[T9C]_[A10T] (ssRNA) RNA: UUUGAUUAAUAUGAUAUCGUUCUUUCUUAUAUAUAUACUUUCUUUCUCGAUAUCAUAUUAAUCUUU | 45.6 nM
Id_ii_S2_P3E.3_K3.2_C3.2_[C-2T]_[T-1G]_H3.2_A3.1_F3.1_T3.2_[T9G]_[A10T] (ssRNA) RNA: UUUGAUUAAUAUGAUAUCGUUCUUUCUUGUAUAUAUAGUUUCUUUCUCGAUAUCAUAUUAAUCUUU | 3.83 nM
Id_ii_S2_P3E.3_K3.2_C3.2_[C-2G]_[T-1C]_H3.2_A3.1_F3.1_T3.2_[A10T] (ssRNA) RNA: UUUGAUUAAUAUGAUAUCGUUCUUUCUGCUAUAUAUAUUUUCUUUCUCGAUAUCAUAUUAAUCUUU | 86.4 nM
Id_ii_S2_P3E.3_K3.2_C3.2_[C-2T]_[T-1G]_H3.2_A3.1_F3.1_T3.2_[T9G]_[A10C] (ssRNA) RNA: UUUGAUUAAUAUGAUAUCGUUCUUUCUUGUAUAUAUAGCUUCUUUCUCGAUAUCAUAUUAAUCUUU | 2.63 nM
Id_ii_S2_P3E.3_K3.2_C3.2_[C-2T]_[T-1C]_H3.2_A3.1_F3.1_T3.2_[T9G]_[A10T] (ssRNA) RNA: UUUGAUUAAUAUGAUAUCGUUCUUUCUUCUAUAUAUAGUUUCUUUCUCGAUAUCAUAUUAAUCUUU | 1030 nM
Id_ii_S2_P3E.3_K3.2_C3.2_[C-2G]_H3.2_A3.1_F3.1_T3.2_[T9C]_[A10G] (ssRNA) RNA: UUUGAUUAAUAUGAUAUCGUUCUUUCUGUUAUAUAUACGUUCUUUCUCGAUAUCAUAUUAAUCUUU | 291 nM
Id_ii_S2_P3E.3_K3.2_C3.2_[C-2T]_[T-1G]_H3.2_A3.1_F3.1_T3.2_[A10C] (ssRNA) RNA: UUUGAUUAAUAUGAUAUCGUUCUUUCUUGUAUAUAUAUCUUCUUUCUCGAUAUCAUAUUAAUCUUU | 1.72 nM
Id_ii_S2_P3E.3_K3.2_C3.2_[C-2T]_[T-1C]_H3.2_A3.1_F3.1_T3.2_[T9C]_[A10G] (ssRNA) RNA: UUUGAUUAAUAUGAUAUCGUUCUUUCUUCUAUAUAUACGUUCUUUCUCGAUAUCAUAUUAAUCUUU | 536 nM
Id_ii_S2_P3E.3_K3.2_C3.2_[C-2G]_[T-1C]_H3.2_A3.1_F3.1_T3.2_[T9A]_[A10C] (ssRNA) RNA: UUUGAUUAAUAUGAUAUCGUUCUUUCUGCUAUAUAUAACUUCUUUCUCGAUAUCAUAUUAAUCUUU | 592 nM
Id_ii_S2_P3E.3_K3.2_C3.2_[C-2G]_[T-1G]_H3.2_A3.1_F3.1_T3.2_[T9A] (ssRNA) RNA: UUUGAUUAAUAUGAUAUCGUUCUUUCUGGUAUAUAUAAAUUCUUUCUCGAUAUCAUAUUAAUCUUU | 872 nM
Id_ii_S2_P3E.3_K3.2_C3.2_[C-2G]_[T-1G]_H3.2_A3.1_F3.1_T3.2_[T9A]_[A10C] (ssRNA) RNA: UUUGAUUAAUAUGAUAUCGUUCUUUCUGGUAUAUAUAACUUCUUUCUCGAUAUCAUAUUAAUCUUU | 1450 nM
Id_ii_S2_P3E.3_K3.2_C3.2_[C-2T]_[T-1G]_H3.2_A3.1_F3.1_T3.2_[T9A] (ssRNA) RNA: UUUGAUUAAUAUGAUAUCGUUCUUUCUUGUAUAUAUAAAUUCUUUCUCGAUAUCAUAUUAAUCUUU | 2.25 nM
Id_ii_S2_P3E.3_K3.2_C3.2_[C-2T]_[T-1A]_H3.2_A3.1_F3.1_T3.2_[T9A] (ssRNA) RNA: UUUGAUUAAUAUGAUAUCGUUCUUUCUUAUAUAUAUAAAUUCUUUCUCGAUAUCAUAUUAAUCUUU | 498 nM
Id_ii_S2_P3E.3_K3.2_C3.2_[C-2T]_[T-1A]_H3.2_A3.1_F3.1_T3.2_[T9A]_[A10T] (ssRNA) RNA: UUUGAUUAAUAUGAUAUCGUUCUUUCUUAUAUAUAUAAUUUCUUUCUCGAUAUCAUAUUAAUCUUU | 247 nM
Id_ii_S2_P3E.2_K3.1_C3.2_H3.1_A3.1_F3.1_T3.2_[T9G]_[A10T] (ssRNA) RNA: UUUGAUUAAUAUGAUAUCGUUCUUUCUCUUGUAUAUAGUUUCUUUCUCGAUAUCAUAUUAAUCUUU | 4.32 nM
Id_ii_S2_P3E.3_K3.2_C3.2_[C-2T]_[T-1C]_H3.2_A3.1_F3.1_T3.2_[A10T] (ssRNA) RNA: UUUGAUUAAUAUGAUAUCGUUCUUUCUUCUAUAUAUAUUUUCUUUCUCGAUAUCAUAUUAAUCUUU | 68.1 nM
Id_ii_S2_P3E.2_K3.1_C3.2_H3.1_A3.1_F3.1_T3.2_[A10G] (ssRNA) RNA: UUUGAUUAAUAUGAUAUCGUUCUUUCUCUUGUAUAUAUGUUCUUUCUCGAUAUCAUAUUAAUCUUU | 2.02 nM
UCUCUUUGUUUUACUAUCUCUU (ssRNA) [Ib_S1_P5E.1_K5.1_C5.1_H5.1_[A4T]_A5.1_F5.1_[T8C]_T5.1] | 59.6 nM
UCUCUUUGUGUUACUAUCUCUU (ssRNA) [Ib_S1_P5E.1_K5.1_C5.1_H5.1_[A4G]_A5.1_F5.1_[T8C]_T5.1] | 51.5 nM
